Test results: US20210388087A1 (Chugai, published 2021)

Target: T1, CD3 epsilon homodimer protein (UniProt P07766 23-126)
T1 construct: immobilized on Sensor chip CM4 by amine coupling; also called CD3 (CD3 epsilon)
Assay: SPR (Biacore T200), CD3 epsilon homodimer on CM4 chip, one-arm antibody as analyte, 25 C;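 also: homodimer attached to the sensor surface via amine coupling, HBS-EP+ used as running buffer during binding runs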

T1 sequence (P07766 23-126): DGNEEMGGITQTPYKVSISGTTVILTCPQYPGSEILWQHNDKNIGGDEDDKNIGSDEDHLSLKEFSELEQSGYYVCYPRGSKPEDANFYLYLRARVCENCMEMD

| Binder | ratio of amounts bound (altered form / CE115HA000) |
| --- | --- |
| CE115HA000 Y100P one-arm antibody (antibody, human IgG1, kappa, L234A L235A, N297A, name in Kabat numbering) heavy: QVQLVESGGGVVQPGRSLRLSCAASGFTFSNAWMHWVRQAPGKGLEWVAQIKAKSNNYATYYAESVKGRFTISRDDSKNSLYLQMNSLKTEDTAVYYCRYVHYGAPYGVDAWGQGTTVTVSSASTKGPSVFPLAPSSKSTSGGTAALGCLVKDYFPEPVTVSWNSGALTSGVHTFPAVLQSSGLYSLSSVVTVPSSSLGTQTYICNVNHKPSNTKVDKKVEPKSCDKTHTCPPCPAPEAAGGPSVFLFPPKPKDTLMISRTPEVTCVVVDVSHEDPEVKFNWYVDGVEVHNAKTKPREEQYASTYRVVSVLTVLHQDWLNGKEYKCKVSNKALPAPIEKTISKAKGQPREPQVYTLPPSRCELTKNQVSLSCAVKGFYPSDIAVEWESNGQPENNYKTTPPVLDSDGSFFLVSKLTVDKSRWQQGNVFSCSVMHEALHNHYTQKSLSLSPDYKDDDDK EPKSSDKTHTCPPCPAPELLGGPSVFLFPPKPKDTLMISRTPEVTCVVVDVSHEDPEVKFNWYVDGVEVHNAKTKPREEQYNSTYRVVSVLTVLHQDWLNGKEYKCKVSNKALPAPIEKTISKAKGQPREPQVCTLPPSRDELTKNQVSLWCLVKGFYPSDIAVEWESNGQPENNYKTTPPVLDSDGSFFLYSKLTVDKSRWQQGNVFSCSVMHEALHNRYTQKSLSLSP light: DIVMTQSPLSLPVTPGEPASISCRSSQSLVHSNRNTYLHWYQQKPGQAPRLLIYKVSNRFSGVPDRFSGSGSGTDFTLKISRVEAEDVGVYYCGQGTQVPYTFGQGTKLEIKRTVAAPSVFIFPPSDEQLKSGTASVVCLLNNFYPREAKVQWKVDNALQSGNSQESVTEQDSKDSTYSLSSTLTLSKADYEKHKVYACEVTHQGLSSPVTKSFNRGEC | 0.48 |
| CE115HA000 Y100S one-arm antibody (antibody, human IgG1, kappa, L234A L235A, N297A, name in Kabat numbering) heavy: QVQLVESGGGVVQPGRSLRLSCAASGFTFSNAWMHWVRQAPGKGLEWVAQIKAKSNNYATYYAESVKGRFTISRDDSKNSLYLQMNSLKTEDTAVYYCRYVHYGASYGVDAWGQGTTVTVSSASTKGPSVFPLAPSSKSTSGGTAALGCLVKDYFPEPVTVSWNSGALTSGVHTFPAVLQSSGLYSLSSVVTVPSSSLGTQTYICNVNHKPSNTKVDKKVEPKSCDKTHTCPPCPAPEAAGGPSVFLFPPKPKDTLMISRTPEVTCVVVDVSHEDPEVKFNWYVDGVEVHNAKTKPREEQYASTYRVVSVLTVLHQDWLNGKEYKCKVSNKALPAPIEKTISKAKGQPREPQVYTLPPSRCELTKNQVSLSCAVKGFYPSDIAVEWESNGQPENNYKTTPPVLDSDGSFFLVSKLTVDKSRWQQGNVFSCSVMHEALHNHYTQKSLSLSPDYKDDDDK EPKSSDKTHTCPPCPAPELLGGPSVFLFPPKPKDTLMISRTPEVTCVVVDVSHEDPEVKFNWYVDGVEVHNAKTKPREEQYNSTYRVVSVLTVLHQDWLNGKEYKCKVSNKALPAPIEKTISKAKGQPREPQVCTLPPSRDELTKNQVSLWCLVKGFYPSDIAVEWESNGQPENNYKTTPPVLDSDGSFFLYSKLTVDKSRWQQGNVFSCSVMHEALHNRYTQKSLSLSP light: DIVMTQSPLSLPVTPGEPASISCRSSQSLVHSNRNTYLHWYQQKPGQAPRLLIYKVSNRFSGVPDRFSGSGSGTDFTLKISRVEAEDVGVYYCGQGTQVPYTFGQGTKLEIKRTVAAPSVFIFPPSDEQLKSGTASVVCLLNNFYPREAKVQWKVDNALQSGNSQESVTEQDSKDSTYSLSSTLTLSKADYEKHKVYACEVTHQGLSSPVTKSFNRGEC | 0.81 |
| CE115HA000 Y100V one-arm antibody (antibody, human IgG1, kappa, L234A L235A, N297A, name in Kabat numbering) heavy: QVQLVESGGGVVQPGRSLRLSCAASGFTFSNAWMHWVRQAPGKGLEWVAQIKAKSNNYATYYAESVKGRFTISRDDSKNSLYLQMNSLKTEDTAVYYCRYVHYGAVYGVDAWGQGTTVTVSSASTKGPSVFPLAPSSKSTSGGTAALGCLVKDYFPEPVTVSWNSGALTSGVHTFPAVLQSSGLYSLSSVVTVPSSSLGTQTYICNVNHKPSNTKVDKKVEPKSCDKTHTCPPCPAPEAAGGPSVFLFPPKPKDTLMISRTPEVTCVVVDVSHEDPEVKFNWYVDGVEVHNAKTKPREEQYASTYRVVSVLTVLHQDWLNGKEYKCKVSNKALPAPIEKTISKAKGQPREPQVYTLPPSRCELTKNQVSLSCAVKGFYPSDIAVEWESNGQPENNYKTTPPVLDSDGSFFLVSKLTVDKSRWQQGNVFSCSVMHEALHNHYTQKSLSLSPDYKDDDDK EPKSSDKTHTCPPCPAPELLGGPSVFLFPPKPKDTLMISRTPEVTCVVVDVSHEDPEVKFNWYVDGVEVHNAKTKPREEQYNSTYRVVSVLTVLHQDWLNGKEYKCKVSNKALPAPIEKTISKAKGQPREPQVCTLPPSRDELTKNQVSLWCLVKGFYPSDIAVEWESNGQPENNYKTTPPVLDSDGSFFLYSKLTVDKSRWQQGNVFSCSVMHEALHNRYTQKSLSLSP light: DIVMTQSPLSLPVTPGEPASISCRSSQSLVHSNRNTYLHWYQQKPGQAPRLLIYKVSNRFSGVPDRFSGSGSGTDFTLKISRVEAEDVGVYYCGQGTQVPYTFGQGTKLEIKRTVAAPSVFIFPPSDEQLKSGTASVVCLLNNFYPREAKVQWKVDNALQSGNSQESVTEQDSKDSTYSLSSTLTLSKADYEKHKVYACEVTHQGLSSPVTKSFNRGEC | 0.6 |
| CE115HA000 Y100W one-arm antibody (antibody, human IgG1, kappa, L234A L235A, N297A, name in Kabat numbering) heavy: QVQLVESGGGVVQPGRSLRLSCAASGFTFSNAWMHWVRQAPGKGLEWVAQIKAKSNNYATYYAESVKGRFTISRDDSKNSLYLQMNSLKTEDTAVYYCRYVHYGAWYGVDAWGQGTTVTVSSASTKGPSVFPLAPSSKSTSGGTAALGCLVKDYFPEPVTVSWNSGALTSGVHTFPAVLQSSGLYSLSSVVTVPSSSLGTQTYICNVNHKPSNTKVDKKVEPKSCDKTHTCPPCPAPEAAGGPSVFLFPPKPKDTLMISRTPEVTCVVVDVSHEDPEVKFNWYVDGVEVHNAKTKPREEQYASTYRVVSVLTVLHQDWLNGKEYKCKVSNKALPAPIEKTISKAKGQPREPQVYTLPPSRCELTKNQVSLSCAVKGFYPSDIAVEWESNGQPENNYKTTPPVLDSDGSFFLVSKLTVDKSRWQQGNVFSCSVMHEALHNHYTQKSLSLSPDYKDDDDK EPKSSDKTHTCPPCPAPELLGGPSVFLFPPKPKDTLMISRTPEVTCVVVDVSHEDPEVKFNWYVDGVEVHNAKTKPREEQYNSTYRVVSVLTVLHQDWLNGKEYKCKVSNKALPAPIEKTISKAKGQPREPQVCTLPPSRDELTKNQVSLWCLVKGFYPSDIAVEWESNGQPENNYKTTPPVLDSDGSFFLYSKLTVDKSRWQQGNVFSCSVMHEALHNRYTQKSLSLSP light: DIVMTQSPLSLPVTPGEPASISCRSSQSLVHSNRNTYLHWYQQKPGQAPRLLIYKVSNRFSGVPDRFSGSGSGTDFTLKISRVEAEDVGVYYCGQGTQVPYTFGQGTKLEIKRTVAAPSVFIFPPSDEQLKSGTASVVCLLNNFYPREAKVQWKVDNALQSGNSQESVTEQDSKDSTYSLSSTLTLSKADYEKHKVYACEVTHQGLSSPVTKSFNRGEC | 1.03 |
| CE115HA000 Y100Q one-arm antibody (antibody, human IgG1, kappa, L234A L235A, N297A, name in Kabat numbering) heavy: QVQLVESGGGVVQPGRSLRLSCAASGFTFSNAWMHWVRQAPGKGLEWVAQIKAKSNNYATYYAESVKGRFTISRDDSKNSLYLQMNSLKTEDTAVYYCRYVHYGAQYGVDAWGQGTTVTVSSASTKGPSVFPLAPSSKSTSGGTAALGCLVKDYFPEPVTVSWNSGALTSGVHTFPAVLQSSGLYSLSSVVTVPSSSLGTQTYICNVNHKPSNTKVDKKVEPKSCDKTHTCPPCPAPEAAGGPSVFLFPPKPKDTLMISRTPEVTCVVVDVSHEDPEVKFNWYVDGVEVHNAKTKPREEQYASTYRVVSVLTVLHQDWLNGKEYKCKVSNKALPAPIEKTISKAKGQPREPQVYTLPPSRCELTKNQVSLSCAVKGFYPSDIAVEWESNGQPENNYKTTPPVLDSDGSFFLVSKLTVDKSRWQQGNVFSCSVMHEALHNHYTQKSLSLSPDYKDDDDK EPKSSDKTHTCPPCPAPELLGGPSVFLFPPKPKDTLMISRTPEVTCVVVDVSHEDPEVKFNWYVDGVEVHNAKTKPREEQYNSTYRVVSVLTVLHQDWLNGKEYKCKVSNKALPAPIEKTISKAKGQPREPQVCTLPPSRDELTKNQVSLWCLVKGFYPSDIAVEWESNGQPENNYKTTPPVLDSDGSFFLYSKLTVDKSRWQQGNVFSCSVMHEALHNRYTQKSLSLSP light: DIVMTQSPLSLPVTPGEPASISCRSSQSLVHSNRNTYLHWYQQKPGQAPRLLIYKVSNRFSGVPDRFSGSGSGTDFTLKISRVEAEDVGVYYCGQGTQVPYTFGQGTKLEIKRTVAAPSVFIFPPSDEQLKSGTASVVCLLNNFYPREAKVQWKVDNALQSGNSQESVTEQDSKDSTYSLSSTLTLSKADYEKHKVYACEVTHQGLSSPVTKSFNRGEC | 0.8 |
| CE115HA000 Y100aA one-arm antibody (antibody, human IgG1, kappa, L234A L235A, N297A, name in Kabat numbering) heavy: QVQLVESGGGVVQPGRSLRLSCAASGFTFSNAWMHWVRQAPGKGLEWVAQIKAKSNNYATYYAESVKGRFTISRDDSKNSLYLQMNSLKTEDTAVYYCRYVHYGAYAGVDAWGQGTTVTVSSASTKGPSVFPLAPSSKSTSGGTAALGCLVKDYFPEPVTVSWNSGALTSGVHTFPAVLQSSGLYSLSSVVTVPSSSLGTQTYICNVNHKPSNTKVDKKVEPKSCDKTHTCPPCPAPEAAGGPSVFLFPPKPKDTLMISRTPEVTCVVVDVSHEDPEVKFNWYVDGVEVHNAKTKPREEQYASTYRVVSVLTVLHQDWLNGKEYKCKVSNKALPAPIEKTISKAKGQPREPQVYTLPPSRCELTKNQVSLSCAVKGFYPSDIAVEWESNGQPENNYKTTPPVLDSDGSFFLVSKLTVDKSRWQQGNVFSCSVMHEALHNHYTQKSLSLSPDYKDDDDK EPKSSDKTHTCPPCPAPELLGGPSVFLFPPKPKDTLMISRTPEVTCVVVDVSHEDPEVKFNWYVDGVEVHNAKTKPREEQYNSTYRVVSVLTVLHQDWLNGKEYKCKVSNKALPAPIEKTISKAKGQPREPQVCTLPPSRDELTKNQVSLWCLVKGFYPSDIAVEWESNGQPENNYKTTPPVLDSDGSFFLYSKLTVDKSRWQQGNVFSCSVMHEALHNRYTQKSLSLSP light: DIVMTQSPLSLPVTPGEPASISCRSSQSLVHSNRNTYLHWYQQKPGQAPRLLIYKVSNRFSGVPDRFSGSGSGTDFTLKISRVEAEDVGVYYCGQGTQVPYTFGQGTKLEIKRTVAAPSVFIFPPSDEQLKSGTASVVCLLNNFYPREAKVQWKVDNALQSGNSQESVTEQDSKDSTYSLSSTLTLSKADYEKHKVYACEVTHQGLSSPVTKSFNRGEC | 0.62 |
